According to the Human Domainome abundance scans (Beltran et al. 2025):

B1: Chromodomain-helicase-DNA-binding protein 4, residues 444 to 496; numbered along this chain, Q14839 (parent)
chain: EDDHHMEFCRVCKDGGELLCCDTCPSSYHIHCLNPPLPEIPNGEWLCPRCTCP
B2: Intersectin-1, residues 909 to 971; numbered along this chain, Q15811 (parent)
chain: QGEKVEGLQAQALYPWRAKKDNHLNFNKNDVITVLEQQDMWWFGEVQGQKGWFPKSYVKLISG

Variants of: B1
Assay: abundance fitness (aPCA) (normalised: wild type 0, dead -1); higher = more abundant; growth selection in yeast, the domain comes from the species named
Conditions: Homo sapiens

Abundance fitness: each site, then its substitutions
E1: R -0.625, T -0.221, Q -0.486, I -0.265, F -0.306, Y -0.175, P -0.436, V -0.059, G -0.289, N 0.354, L -0.235, W -0.898, A -0.531, M 0.156, S -0.507, D -0.693
D2: A 0.05, E 0.188, V 0.217, S 0.202, K 0.378, N 0.091, W -0.334, F 0.463, R 0.033, G 0.26, L 0.163, H -0.036, M 0.278, Y 0.016, C -0.425
D3: H 0.1, S 0.105, Y 0.319, R 0.06, Q 0.221, V -0.174, L 0.342, P -0.174, G -0.292, T 0.277, I 0.393, K 0.304, A -0.211, C 0.27, W 0.201, M 0.397, E -0.187
H4: A -0.14, C 0.032, D 0.125

Variants of: B2
Assay: as above
Conditions: Homo sapiens

Abundance fitness, by site and new letter:
G51: A -0.408, C -0.709, D -0.793, R -0.89, V -0.97, M -0.938, S -0.988, E -0.86
P54: K -0.354, C -0.765, G -1.18, Q -0.688, M -0.25, D -0.721, S -0.88, W -0.437, E -0.474, R -0.714, L -0.215, F -0.8, V -0.499
V46: G -0.193, I -0.11, C 0.012, S -0.001, Y -0.287, Q -0.279, K -0.051, R -0.1, M -0.048, E -0.584, F -0.101, N -0.309, D -0.384, H 0.035, L 0.079, A 0.015, T -0.155, W -0.09
K55: L -0.24, Q -0.005, R 0.018, E -0.396, C -0.16, G -0.165, N -0.054
Q49: M -0.052, D -0.466, I -0.208, N -0.403, G -0.005, S -0.232, H 0.045, R -0.031, V -0.065, K -0.483, Y -0.303, C 0.046, E 0.222
G48: P -0.604, M -0.226, W -0.939, A -0.208, T -0.526, F -0.522, L -0.259, C -0.361, K -0.053, H -0.381, E 0.011, D -0.061, R -0.224, S -0.149, V -0.584, Y -0.074, Q -0.38
I61: D -0.159, S -0.301, V 0.095, R -0.155, K -0.079, H -0.438, L 0.002, Y -0.223, T -0.137, F 0.08, W -0.274, M -0.383, E -0.088, G -0.207, A -0.073
S62: W -0.075, F -0.63, T -0.209, D -0.041, A 0.062, V -0.253, G -0.129, I -0.165, H -0.362, R -0.101, L -0.084, Q 0.067, N -0.151, P -0.21, Y -0.626, K -0.158, E -0.398, C -0.089
V58: T -0.395, D -0.793, P -0.379, W -0.87, F -0.821, G -0.881, S -0.816, L -0.812, C -0.169, R -1.04, E -0.703, I -0.451, A -0.189
E45: L -0.076, R -0.034, G -0.263, A -0.245, I -0.192, W -0.274, H 0.089, Q 0.067, D -0.223, C -0.117, M -0.18, T 0.073, S -0.039, N -0.356, K -0.222, F -0.055, V -0.013, Y 0.003
K50: M -0.177, N 0.014, H -0.271, E -0.052, Q -0.308, P -0.242, W -0.255, T -0.108, A -0.183, V -0.26, C -0.113, I -0.224, L -0.383, S -0.139, R 0.056, F -0.208, D -0.256
Y57: V -0.084, W -0.258, R -0.013, A 0.12, P -1.02, C -0.153, T -0.013, M 0.008, S -0.308, E -0.243, N 0.212, F 0.279, H -0.238, Q -0.14, L 0.013, K 0.081, G -0.572, D -0.399, I -0.289
G44: T -0.604, D -0.999, C -0.79, P -1.11, V -1.1, W -1, A -1.03
K59: I -0.227, Y -0.378, T -0.31, M -0.108, C -0.192, L -0.331, R -0.043, A -0.165, G -0.424, V -0.234, D -0.615, W -0.747, S -0.122, Q -0.109, H -0.211, N -0.114, E -0.128
W52: S -1.15, P -0.721, R -1, A -0.708, V -0.944, K -0.375, I -0.458, G -1.18, F -0.232, M -0.804, T -0.89, Q -0.776
Q47: G -0.009, N -0.084, R -0.151, S -0.167, D -0.546, V -0.097, C -0.332, M -0.097, W -0.125, K 0.027, L -0.254, F 0.133, Y -0.113, P -0.293, T -0.014, E 0.017, A 0.009
L60: K -0.1, I -0.258, D -0.22, S -0.18, G -0.18, R -0.119, Q 0.049, V -0.06, C 0.029, P -0.152, T -0.162, N -0.254, F -0.536, M -0.058
G63: D 0.07, M 0.011, I -0.151, C 0.026, T 0.032, S -0.278, A -0.058, P -0.01, W -0.276, L -0.077, R -0.029, Q -0.248
S56: I -0.491, Q -0.099, D -0.1, G -0.147, Y -0.225, E -0.178, W -0.393, M -0.238, P -0.298, K -0.251, C -0.204, V -0.099, F -0.239, T -0.016, L -0.102, A -0.137
F53: M -0.543, Q -1.03, G -0.569, W -0.798, Y -0.666, L -0.701, V -0.677, K -0.962, S -0.932, H -0.709, E -0.858, R -0.951
